Measured values reported in patent US20220098328A1, “ANTIBODIES TO M(H)DM2/4 AND THEIR USE IN DIAGNOSING AND TREATING CANCER” (NomoCan Pharmaceuticals LLC, priority 2017, published 2022).
Entries after “also recorded” stand apart in the source; their conditions may differ.

Legend:
Format in all cases: cell-based
[1] = test system: mouse Lewis Lung LL/2 cancer cells; test: Flow cytometry (EDTA vs trypsin, intact vs permeabilized); conditions: for % cells stained: 5 μg/ml antibody; for staining of trypsin-treated permeabilized cells: reduction in binding after trypsin vs reactivity with intracellular target
Protocol: Flow Cytometry Methodology: Cells that had been allowed to grow to about 80% confluency in 25 cm^2 tissue culture flasks were released with either EDTA (10 mmols; pH7.2; 5 min, 37° C.) or Trypsin (Gibco TrypLE Express), fixed with freshly made 4% buffered (pH 7.4) paraformaldehyde for 1 h at room temperature, washed several times with a large volume of ice-cold PBS, and blocked for 30 minutes at room temperature with 5% human serum albumin in PBS (intact, non-permeabilized cells). After establishing viability, the cell number was adjusted to 10^6 cells/ml and kept in ice-cold PBS until staining. Another set of the same cells was released with either EDTA or Trypsin and fixed with 4% buffered paraformaldehyde as above, then washed and blocked with 5% human serum albumin in PBS, and was treated separately with Triton X-100 (0.1% in PBS) (International Biotechnologies Inc. 07100) for 5 minutes at room temperature for membrane permeabilization. After washing off the Triton X-100 solution with PBS the cells were adjusted to 10^6 cells/ml and stored in ice-cold PBS. Cells (10^6/ml) from each preparation were then incubated either with 5 μg/ml of mAb to Na+/K+ ATPase α-1 (Abcam, Cat. No. ab2826), 5 μg/ml of mAb NMC-103, or 5 μg/ml of mAb NMC-204 for 90 min at room temperature. Following primary antibody incubation, cells were washed 3 times with ice-cold PBS followed by incubation with rabbit anti-mouse PE-Cy5 labeled secondary antibody (PE-Cy5-RaM IgG (H&L); Invitrogen, Cat. No. M35018) at room temperature. Sixty minutes later the cells were washed 3 times with PBS and subjected to flow cytometry analysis (BD Canto Flow Cytometry). Controls to establish background fluorescence included the analysis of samples of unstained cells as well as cells that had been processed with secondary antibody under the same conditions as used in the experimental samples.
Cells that had been allowed to grow to about 80% confluency in 75 cm^2 tissue culture flasks were released with either EDTA (10 mmols; pH 7.2; 5 min, 37° C.) or Trypsin (Gibco TrypLE Express), washed several times with ice-cold PBS, and blocked for 20 minutes on ice with 5% human serum albumin in PBS (intact, non-permeabilized cells). After establishing viability, the cell number was adjusted to 10^6 cells/ml and kept in ice-cold PBS until staining. Cells were then incubated with primary antibodies NMC-H103 (VH4/VK3) or NMC-C303 (1 μg/ml) for 30 minutes on ice. Following primary antibody incubation, cells were washed 3 times with ice-cold PBS, followed by incubation with goat anti-human PE labeled secondary antibody (Life technologies H10104) on ice for 20 minutes. Cells were then washed 3 times with PBS and incubated with 7AAD (5 μl/[…] of buffer) before flow cytometry analysis using Fortessa 5.

[2] = test system: human breast cancer MCF-7 cells; test: Cell-ELISA on intact cells; conditions: for relative binding (reactivity) to intact cells, cell-ELISA: MCF-7, mAb 1 μg/mL, fixed, non-permeabilized cells
Protocol: (§1) Cell-ELISA Methodology: 8,000-10,000 cells/well of a 96-well microplate were grown overnight. The next day, unbound cells were washed off with sterile 1×PBS. The cells in each well were fixed with freshly prepared 4% buffered paraformaldehyde (pH 7.2) for 1 hour followed by 3 washes with 1×PBS. The wells were then blocked with 5% BSA in PBS (100 μl/well) for 2 hours at room temperature. Microplate wells were then washed 5 times with 300 μl of ice cold 1×PBS. MAbs NMC-103, NMC-204 or NMC-303 at 1 μg/mL in 1% BSA/PBS were then incubated with various cancer or normal untransformed cells for 2 hours at room temperature. Wells were then washed with 300 μl of ice-cold 1×PBS for 5 times and corresponding secondary antibody HRP-GaM F(ab′)2 diluted 1:2500 or 1:5000 in PBS with 1% BSA were added at 100 μl/well for 1 hour at room temperature followed by washing 5 times with 300 μl of ice-cold 1×PBS. TMB Substrate Solution (1-Step™ Ultra TMB-ELISA, ThermoFisher, Cat. No. 34028) was then added at 50 μL to each microplate well and incubated at room temperature for 30 minutes. The reaction was stopped by addition of 50 μL of stop solution (ThermoFisher, Cat. No. SS04) to each well and absorbance of each well was measured at OD450 nm. The absorbance value of each experimental well was corrected for the absorbance value obtained from wells treated with isotype-identical mAbs included in each experiment. The results are thus expressed as “relative binding”.
(§2) In a 96-well microplate, 15,000 cells/well were cultured overnight. The next day, unbound cells were washed off with sterile 1×PBS. The cells in each well were fixed with freshly prepared 4% buffered paraformaldehyde (pH 7.2) for 1 hour, followed by 3 washes with 1×PBS. The wells were then blocked with 5% BSA in PBS (100 μl/well) for 2 hours at room temperature. Microplate wells were then washed 5 times with 300 μl of ice cold 1×PBS. Monoclonal antibodies NMC-H103 (VH4/VK3) or NMC-C303 at 5 μg/mL in 1% BSA/PBS were then incubated with various cancer cells for 2 hours at room temperature. Wells were then washed with 300 μl of ice-cold 1×PBS for 5 times and corresponding secondary antibody HRP-GaH F(ab′)2 diluted 1:2000 or 1:4000 in PBS with 1% BSA were added at 100 μl/well for 1 hour at room temperature followed by washing 5 times with 300 μl of ice-cold 1×PBS. TMB Substrate Solution (1-Step™ Ultra TMB-ELISA, ThermoFisher, Cat. No. 34028) was then added at 50 μL to each microplate well and incubated at room temperature for 30 minutes. The reaction was stopped by addition of 50 μL of stop solution (ThermoFisher, Cat. No. SS04) to each well and absorbance of each well was measured at OD450 nm. The absorbance value of each experimental well was corrected for the absorbance value obtained from wells treated with isotype-identical mAbs included in each experiment.

[3] = test system: primary patient-derived human ovarian cancer OVCA4 cells; test: Cell-ELISA on intact cells; conditions: for relative binding (reactivity) to intact cells, cell-ELISA: OVCA4, mAb 1 μg/mL, fixed, non-permeabilized cells
Protocol: as §1, §2

[4] = test system: mouse colon cancer MC-38 cells; test: Cell-ELISA on intact cells; conditions: for relative binding (reactivity) to intact cells, cell-ELISA: MC-38, mAb 1 μg/mL, fixed, non-permeabilized cells
Protocol: as §1, §2

[5] = test system: human ovarian cancer OVCAR-3 cells; test: Cell-ELISA on intact cells; conditions: for relative binding (reactivity) to intact cells, cell-ELISA: OVCAR-3 (resistant to adriamycin, melphalan, cisplatin), mAb 1 μg/mL, fixed, non-permeabilized cells
Protocol: as §1, §2

[6] = test system: human pancreatic cancer MIA PaCa-2 cells; test: Cell-ELISA on intact cells; conditions: for binding to intact, EDTA-released MiaPaCa-2 cells, cell-ELISA: EDTA 10 mmols, pH 7.2, 5 min, 37° C.; for relative binding (reactivity) to intact cells, cell-ELISA: MIA PaCa-2, mAb 1 μg/mL, fixed, non-permeabilized cells; for binding to intact MIA PaCa-2 cells when competed with NMC-P2 peptide / binding to intact MIA PaCa-2 cells when competed with soluble NMC-P1 peptide: cell-ELISA peptide competition
Protocol: as §1, §2

[7] = test system: mouse pancreatic Panc02 cells; test: Cell-ELISA on intact cells; conditions: for relative binding (reactivity) to intact cells, cell-ELISA: Panc02, mAb 1 μg/mL, fixed, non-permeabilized cells
Protocol: as §1, §2

[8] = EDTA-treated permeabilized cells (Triton X-100)

B1: NMC-204: mouse monoclonal antibody of the IgG3 isotype that binds to NMC-P2 (SEQ ID NO:2); VH SEQ ID NO:38, VL SEQ ID NO:39 (antibody, V domains shown)
VH: EVQLQESGSVLVRPGASVKLSCKASGDTLSGSWMHWAMQRPGQGLEWIGEIHLNRGTTNYNEKFKGKATVTVDTSSSTAYVDLSSLTSEDSAVYYCARSPGFAYWGQGTLVTVSA
VL: GIVMTQAAPSVPVTPGESVSISCRSSKSLLHSNGNSYLYWFLQRPGQSPQLLIYRMSNLASGVPDRFSGSGSGTAFTLRITRVEAEDVGVYYCMQHLEYPFTFGSGTKLEIK
modifications: mAb NMC-204 Heavy Chain Variable Region; mAb NMC-204 Light Chain Variable Region
% cells stained ([1]; EDTA-treated intact cells): 51.2% | % cells stained [1, 8]: 52.85% | staining of trypsin-treated permeabilized cells [1]: compensated | % cells stained ([1]; trypsin-treated intact cells): 27% | relative binding (reactivity) to intact cells, cell-ELISA [2]: reactivity | relative binding (reactivity) to intact cells, cell-ELISA [3]: reactivity | relative binding (reactivity) to intact cells, cell-ELISA [4]: reactivity | relative binding (reactivity) to intact cells, cell-ELISA [5]: reactivity | binding to intact, EDTA-released MiaPaCa-2 cells, cell-ELISA [6]: bound | relative binding (reactivity) to intact cells, cell-ELISA [6]: reactivity; also recorded: reacted | binding to intact MIA PaCa-2 cells when competed with NMC-P2 peptide [6]: competed | binding to intact MIA PaCa-2 cells when competed with soluble NMC-P1 peptide [6]: not with NMC-P1 | relative binding (reactivity) to intact cells, cell-ELISA [7]: reactivity

B2: NMC-103: mouse monoclonal antibody of the IgG1 isotype that binds to NMC-P1 (SEQ ID NO:1); VH SEQ ID NO:36, VL SEQ ID NO:37 (antibody, V domains shown)
VH: EVQLQESGGGLVQPGGSLRLSCTTSGFTFTHYYMSWVRQPPGKALEWLGFIRNKAKGYTAEYSASVKGRFTISRDNSQSILYLQMNTLRPEDSATYYCARDIGDNWGQGTLVTVSS
VL: DIVMTQAAFSNPVTLGTSASISCRSSKNLLHSNGITYLYWYLQRPGQSPQLLISRVSNLASGVPNRFSGSESGTDFTLRISRVEAEDVGVYFCAQLLELPYTFGGGTKLEIK
modifications: mAb NMC-103 Heavy Chain Variable Region; mAb NMC-103 Light Chain Variable Region
% cells stained ([1]; EDTA-treated intact cells): 70.4% | % cells stained [1, 8]: 75.8% | staining of trypsin-treated permeabilized cells [1]: compensated | % cells stained ([1]; trypsin-treated intact cells): 36.8% | relative binding (reactivity) to intact cells, cell-ELISA [2]: reactivity | relative binding (reactivity) to intact cells, cell-ELISA [3]: reactivity | relative binding (reactivity) to intact cells, cell-ELISA [4]: reactivity | relative binding (reactivity) to intact cells, cell-ELISA [5]: reactivity | binding to intact, EDTA-released MiaPaCa-2 cells, cell-ELISA [6]: bound | relative binding (reactivity) to intact cells, cell-ELISA [6]: reactivity | binding to intact MIA PaCa-2 cells after pre-incubation with full-length recombinant HDM2 ([6]; cell-ELISA competition): reduced | binding to intact MIA PaCa-2 cells when competed with NMC-P2 peptide [6]: did not have any effect | binding to intact MIA PaCa-2 cells when competed with soluble NMC-P1 peptide [6]: completely abolished | relative binding (reactivity) to intact cells, cell-ELISA [7]: reactivity

B3: NMC-H103 (VH4/VK3): humanized NMC-103 variant, human IgG1, VH4 (SEQ ID NO:299) and VK3 (SEQ ID NO:297) (antibody, V domains shown)
VH: EVQLVESGGGLVQPGPSLRLSCTTSGFTFTHYYMSWVRQAPGKGLEWLGFIRNKAKGYTAEYSASVKGRFTISRDNSKSTLYLQMNSLRAEDTAVYYCARDIGDNWGQGTLVTVSS
VL: DIVMTQTPLSSPVTLGQPASISCRSSKNLLHSNGITYLYWYLQKPGQSPQLLISRVSNLASGVPDRFSGSESGTDFTLKISRVEAEDVGVYFCAQLLELPYTFGGGTKVEIK
modifications: human IgG1 constant regions lacking entries; mAb NMC-H103.VH4Heavy Chain Variable Region; mAb NMC-H103.VK3Light Chain Variable Region
binding to live cells briefly treated with trypsin, flow cytometry ([1]; 7AAD negative): reduced | binding to live (7AAD negative) cells, flow cytometry ([1]; antibody 1 μg/ml): binding | binding to intact, un-permeabilized cells, cell-based ELISA ([2]; MCF-7 breast cancer cells, mAb 5 μg/mL): binding | binding to intact, un-permeabilized cells, cell-based ELISA ([3]; OVCA-4 ovarian cancer cells, mAb 5 μg/mL): binding | binding to intact, un-permeabilized cells, cell-based ELISA ([4]; MC-38 colon cancer cells, mAb 5 μg/mL): binding | binding to intact, un-permeabilized cells, cell-based ELISA ([5]; OVCAR-3 ovarian cancer cells, mAb 5 μg/mL): binding | binding to intact, un-permeabilized cells, cell-based ELISA ([6]; MIAPaCa-2 pancreatic cancer cells, mAb 5 μg/mL): binding | binding to intact, un-permeabilized cells, cell-based ELISA ([7]; Panc-2 pancreatic cancer cells, mAb 5 μg/mL): binding
